Assay results published in patent CN108484759A.

Target: 鸡传染性法氏囊病病毒 B87株
Experiment: cell-based or functional assay

B1: IBDV-VP2 scFv30抗体 (scFv)
scFv: AVTLDESGGGLQTPGGALSLVCKGSGFDFSSHGMAWVRQAPGKGLEWVAGIGSSSSGTAYGSAVQGRATISRDNGQSTVRLQLNNLRAEDTGTYYCAKSVGDCAYGYSCAAGGIDAWGHGTEVIVSSASGGGGSGGGGSGGGGSVLTQPSSVSANPGETVKITCSGGGGSYGWFQQKSPGSAPVTVIYNNNNRPSDIPSRFSGSKSGSTATLTITGVQAEDEAVYYCGGSEDSSAGYVGIFGAGTTLTVLG
阻断或抑制CPE的最小蛋白浓度: 4.69 µg/mL
